Blank lines part the entries; values can stand above or below the binder they belong to.
Biological target: T1, CBRN-PLC-β3 fusion protein (phospholipase C-β3 with CBRN at its N-terminus) (UniProt Q01970 1-1234)
T1 construct: phospholipase C-β3 (PLC-β3); also called N-terminally-tagged PLC-β3; PLC-β3 sensor protein; not shown: CBRN (N-terminal fragment of red click-beetle luciferase, amino acids 1-416), N-terminal, kept
T1 sequence (looked up): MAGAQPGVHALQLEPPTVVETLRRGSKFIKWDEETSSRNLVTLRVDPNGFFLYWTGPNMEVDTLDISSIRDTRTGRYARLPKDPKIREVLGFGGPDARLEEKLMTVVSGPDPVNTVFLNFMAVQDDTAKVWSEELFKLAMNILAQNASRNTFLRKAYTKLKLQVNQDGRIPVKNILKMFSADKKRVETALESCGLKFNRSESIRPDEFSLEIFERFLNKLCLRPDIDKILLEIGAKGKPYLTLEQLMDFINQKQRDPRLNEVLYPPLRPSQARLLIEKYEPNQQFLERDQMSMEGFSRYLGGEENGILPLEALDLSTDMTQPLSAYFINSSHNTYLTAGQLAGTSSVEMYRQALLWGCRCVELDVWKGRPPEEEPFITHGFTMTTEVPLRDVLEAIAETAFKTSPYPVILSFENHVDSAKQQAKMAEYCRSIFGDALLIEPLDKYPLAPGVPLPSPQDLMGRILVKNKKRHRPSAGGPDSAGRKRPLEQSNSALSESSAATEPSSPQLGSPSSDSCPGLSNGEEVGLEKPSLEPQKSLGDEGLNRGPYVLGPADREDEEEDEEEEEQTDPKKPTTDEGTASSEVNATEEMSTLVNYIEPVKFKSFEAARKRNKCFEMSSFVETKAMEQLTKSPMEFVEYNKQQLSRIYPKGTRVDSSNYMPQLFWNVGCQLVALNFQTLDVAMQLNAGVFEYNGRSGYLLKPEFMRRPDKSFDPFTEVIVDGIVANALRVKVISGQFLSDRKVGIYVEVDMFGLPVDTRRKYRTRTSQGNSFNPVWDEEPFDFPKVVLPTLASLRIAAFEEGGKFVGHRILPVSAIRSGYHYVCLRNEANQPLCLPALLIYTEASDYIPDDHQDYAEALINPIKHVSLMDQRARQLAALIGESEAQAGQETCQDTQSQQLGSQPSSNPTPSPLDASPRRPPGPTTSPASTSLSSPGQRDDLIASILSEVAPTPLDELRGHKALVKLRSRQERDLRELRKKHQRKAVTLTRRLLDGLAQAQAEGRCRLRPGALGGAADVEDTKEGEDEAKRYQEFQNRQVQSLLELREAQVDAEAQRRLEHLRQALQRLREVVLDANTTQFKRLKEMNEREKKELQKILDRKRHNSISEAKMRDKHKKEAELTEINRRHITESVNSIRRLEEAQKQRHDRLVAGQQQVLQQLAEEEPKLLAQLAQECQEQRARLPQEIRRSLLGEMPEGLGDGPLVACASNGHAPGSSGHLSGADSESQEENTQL
Assay: split reporter (BiFC, NanoBiT); split click-beetle luciferase complementation in live HEK293T cells expressing the sensor and a GPCR (hH1R; also hM1,3,5R, hNTS1R); D-luciferin added to the cells, L-15 with 5% FCS, 37 °C; stimulated with agonist (histamine)
Conditions: partners not purified

S/B ratio (signal-to-background of luminescence): ~5
B1: Gαq(123) fusion protein (CBRC integrated into the Gαq sequence after amino acid 123) (natural protein, UniProt P50148 1-359, looked up)
chain: MTLESIMACCLSEEAKEARRINDEIERQLRRDKRDARRELKLLLLGTGESGKSTFIKQMRIIHGSGYSDEDKRGFTKLVYQNIFTAMQAMIRAMDTLKIPYKYEHNKAHAQLVREVDVEKVSAFENPYVDAIKSLWNDPGIQECYDRRREYQLSDSTKYYLNDLDRVADPAYLPTQQDVLRVRVPTTGIIEYPFDLQSVIFRMVDVGGQRSERRKWIHCFENVTSIMFLVALSEYDQVLVESDNENRMEESKALFRTIITYPWFQNSSVILFLNKKDLLEEKIMYSHLVDYFPEYDGPQRDAQAAREFILKMFVDLNPDSDKIIYSHFTCATDTENIRFVFAAVKDTILQLNLKEYNLV
notes: Gαq (G protein alpha q subunit); also called modified Gαq; Gαq sensor protein

fold lower S/B ratio than the sensor with Gαq(123): ~3 fold
B2: Gαq(97) fusion protein (CBRC integrated into the Gαq sequence after amino acid 97) (natural protein, UniProt P50148 1-359, looked up)
chain: B1 chain
notes: Gαq (G protein alpha q subunit); CBRC inserted after amino acid 97 with flexible Gly/Ser linkers; source: HEK293T, transfected, in cells; not shown: CBRC (C-terminal fragment of red click-beetle luciferase, amino acids 394-542), internal (after residue 97), kept
